Results reported in patent US20240025969A1, “NPC1 MONOBODIES AND MONOBODY CONJUGATES THEREOF” (NEW YORK UNIVERSITY, priority 2020, published 2024).
Entries after “also recorded” stand apart in the source; their conditions may differ. One block for each molecule: values may come before it.

How the values were obtained:
[1] = test system: ERK; assay: ERK hyperactivation in NPC1 knockdown cells, EGFR inhibition; type: cell-based; details: short-term EGFR inhibition
[2] = test system: HeLa cells; assay: LC3B accumulation in macropinocytosis negative wild-type KRas HeLa cells; type: cell-based
Protocol: (§1) FIGS. 8A-8B show mutant KRas-dependent effects of NPC1-targeting monobodies. N23 and N34 clones were analyzed for effect on macropinocytosis negative wild-type KRas HeLa cells (FIG. 8A) versus macropinocytosis-positive mutant KRas […] cells (FIG. 8B). FN is a non-targeting monobody control. Arrows indicate LC3B accumulation.

[3] = test system: PDAC MIA PaCa3 cells; assay: Calcein endosomal release assay, with or without nanoparticle delivery vehicle; type: cell-based; details: for endosomal release of calcein: calcein alone (PBS) or packaged in pegylated nanoparticle delivery vehicles (90 nm Nano), both conditions; for calcein fluorescence (endosomal release of calcein): co-delivery with calcein (FIG. 17)
Text: Calcein is a membrane impermeable, fluid phase uptake marker that is semi-quenched when in close proximity with other calcein molecules in vesicular compartments, but with intracellular release and molecule diffusion, dequenching causes an increase in cellular fluorescence.
FIGS. 18A-18B show an NCP1 monobody mediated increase in endosomal calcein release that was further improved in the presence of a nanoparticle delivery vehicle. FIG. 18A is a panel of immunocytochemical images of PDAC MIA PaCa3 cells treated with calcein alone (PBS) or packaged in a pegylated nanoparticle delivery vehicles (90 nm Nano) (images of top row). […] FIG. 18B is a graph quantifying calcein fluorescence in each of the tested conditions.
Endosome escape was again observed in a small molecule assay (FIG. 17). Calcein is a membrane impermeable, fluid phase uptake marker that is semi-quenched when in close proximity with other calcein molecules in vesicular compartments, but with intracellular release and molecule diffusion, dequenching causes an increase in cellular fluorescence. […] The NPC1 targeting monobodies have been established to induce small molecule, biologic, and nanoparticle escape.

[4] = test system: Mutant Ras PDAC MIA PaCa-2 cells; assay: Split GFP assay for endosomal escape of GFP11; type: cell-based; details: MIA PaCa-2 cells expressing GFP1-10; 600 mM GFP11 with 1 mM monobody for 24 hrs
Protocol: Mutant Ras PDAC MIA PaCa-2 cells stably expressing cytoplasmic GFP1-10 were treated with 600 mM GFP11 with or without 1 mM of the N23 or N34 NCP1 monobody for 24 hrs.
A split GFP assay was developed to measure endosomal escape of proteins. Mutant Ras PDAC MIA PaCa-2 cells were stably expressed with GFP1-10, which is missing the 11β domain needed for fluorescence, making endosomal escape of GFP110 necessary for a positive signal. NPC1 targeting and control monobodies were co-delivered with the free GFP110 domain.

[5] = test system: HeLa KRasV12 cells; assay: LC3B accumulation in macropinocytosis-positive mutant KRas HeLa cells; type: cell-based
Protocol: as §1

[6] = test system: HCT-116 cell; assay: HCT-116 cell proliferation, Syto60 assay; type: cell-based; details: Syto60 assay after 3 days of treatment, n=3
Protocol: Proliferation was analyzed by Syto60 assay after 3 days of treatment. n=3

[7] = biological target: T1, NPC1 (Homo sapiens, UniProt O15118); assay: Screen for NPC1-inhibitory monobodies: intracellular cholesterol trafficking, filipin; type: cell-based; details: for inhibition of NPC1 by endosomal accumulation of cholesterol: DLD1 cells (Ras mutation, colon), cholesterol measured by filipin; for cholesterol entrapment / vesicle disruption: DLD1 cells, preliminary data; for cholesterol entrapment: filipin
T1 construct: endogenous in cells; host or cells: DLD-1 (mutant KRas colorectal cancer cells)
T1 sequence (O15118 23-1278): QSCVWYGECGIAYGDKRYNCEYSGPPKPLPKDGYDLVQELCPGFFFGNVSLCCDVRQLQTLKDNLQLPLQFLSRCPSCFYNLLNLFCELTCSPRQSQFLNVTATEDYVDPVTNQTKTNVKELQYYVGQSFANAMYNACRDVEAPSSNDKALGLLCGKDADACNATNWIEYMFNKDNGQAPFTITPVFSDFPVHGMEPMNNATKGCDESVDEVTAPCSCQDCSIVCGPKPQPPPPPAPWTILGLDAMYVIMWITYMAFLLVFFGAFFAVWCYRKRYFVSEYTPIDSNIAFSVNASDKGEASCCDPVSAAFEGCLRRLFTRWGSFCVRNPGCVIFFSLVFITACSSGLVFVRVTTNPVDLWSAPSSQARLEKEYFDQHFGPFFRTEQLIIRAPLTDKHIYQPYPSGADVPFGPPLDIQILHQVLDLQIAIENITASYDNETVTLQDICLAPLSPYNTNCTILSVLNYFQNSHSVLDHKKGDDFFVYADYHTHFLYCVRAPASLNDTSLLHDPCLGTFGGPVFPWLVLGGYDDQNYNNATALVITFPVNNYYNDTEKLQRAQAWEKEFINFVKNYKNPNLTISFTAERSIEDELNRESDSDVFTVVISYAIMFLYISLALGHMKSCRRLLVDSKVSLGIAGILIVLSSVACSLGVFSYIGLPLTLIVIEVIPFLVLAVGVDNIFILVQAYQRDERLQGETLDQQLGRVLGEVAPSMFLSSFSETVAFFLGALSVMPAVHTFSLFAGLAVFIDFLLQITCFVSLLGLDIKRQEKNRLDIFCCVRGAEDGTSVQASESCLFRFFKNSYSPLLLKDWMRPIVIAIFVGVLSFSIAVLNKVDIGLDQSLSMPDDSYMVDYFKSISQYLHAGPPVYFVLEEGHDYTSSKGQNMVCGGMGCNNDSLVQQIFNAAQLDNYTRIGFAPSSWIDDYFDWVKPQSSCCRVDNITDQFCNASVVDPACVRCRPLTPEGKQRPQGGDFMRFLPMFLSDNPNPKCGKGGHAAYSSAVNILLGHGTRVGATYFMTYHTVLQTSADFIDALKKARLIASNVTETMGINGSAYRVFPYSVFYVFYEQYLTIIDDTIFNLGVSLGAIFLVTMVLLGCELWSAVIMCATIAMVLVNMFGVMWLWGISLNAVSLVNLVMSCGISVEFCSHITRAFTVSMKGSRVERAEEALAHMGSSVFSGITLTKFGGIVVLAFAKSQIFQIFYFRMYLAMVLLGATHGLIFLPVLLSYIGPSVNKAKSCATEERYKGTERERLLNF
Text: FIG. 7A is a graph showing the effect of monobody clones on intracellular cholesterol trafficking. FIG. 7B are representative cell images from FIG. 7A. FIG. 7C is a heat map representation of cholesterol localization from FIG. 7B.
A major benefit of monobodies over antibodies is the lower cost in manufacturing. However, if monobodies need to be re-folded or aggregate during production, the cost of manufacturing can exceed that of antibodies. […] Utilizing both the imaging-based and biochemical approaches, it was confirmed that the monobodies described herein inhibit NPC1 in cell culture. […] FIG. 7B DLD1 cells (Ras mutation, colon) were treated with the top monobody hits and cholesterol was measured by filipin.

[8] = test system: HCT-116; assay: LC3B accumulation in HCT-116 cells; type: cell-based
Text: (§2) FIGS. 10A-10B show monobody selectivity in colorectal DLD-1 and HCT-116 cancer cells (CRC).
(§3) Confirmation that uptake is dependent on macropinocytosis was confirmed in CRC cell lines. […] It was also observed that upon NPC1 knockdown in vitro, there is ERK hyperactivation (FIG. 13A). This observation was confirmed using the N34 monobody in vivo (FIG. 13B).

[9] = test system: HCA7; assay: Monobody uptake in wild-type KRas CRC cells; type: cell-based; details: macropinocytosis negative
Text: as §2, §3

[10] = test system: HCT-116; assay: Monobody uptake in mutant KRas CRC cells HCT-116; type: cell-based; details: mutant KRas CRC cells HCT-116, macropinocytosis positive
Text: as §2, §3

[11] = test system: DLD-1; assay: Monobody uptake in mutant KRas CRC cells DLD-1; type: cell-based; details: mutant KRas CRC cells DLD-1, macropinocytosis positive
Text: as §2, §3

[12] = test system: xenografts; assay: Intratumor injection of monobody into xenografts; type: in vivo
Protocol: FIG. 11 show the in vivo cholesterol alterations with NPC1-targeting monobody (N34) versus non-targeting control (FN).
Monobody (1 uM; 50ul volume) was intratumorally injected two hours prior to tumor extraction.
Monobody (1 uM; 50ul volume) was intratumorally injected two hours prior to tumor extraction. Images were taken of serial sections from FIG. 13B.
as §3

[13] = N34-positive vs N34-negative areas, 1 uM, 50ul intratumorally, 2 hours post-injection
[14] = N34-positive vs N34-negative tumor, 1 uM, 50ul intratumorally two hours prior to tumor extraction

Molecule: COc1cc2ncnc(Nc3ccc(F)c(Cl)c3)c2cc1NC(=O)/C=C/CN1CCCCC1 [dacomitinib]
ERK hyper-activation [1]: blocked ERK hyper-activation

inhibition of NPC1 by endosomal accumulation of cholesterol [7]: greatest inhibition of NPC1 | cholesterol entrapment [7]: improved cholesterol entrapment | vesicle disruption [7]: induce vesicle disruption
B1: N23: NPC1-targeting monobody clone N23 (SEQ ID NO: 36) (protein)
chain: VSSVPTKLEVVAATPTSLLISWDASSSSVSYYRITYGETGGPFWHYQTFTVPGSKSTATISGLKPGVDYTITVYTYSSSMHFSSSPISINYRT
LC3B accumulation [2]: did not induce LC3B accumulation | endosomal release of calcein [3]: enhanced endosomal release of calcein | calcein fluorescence (endosomal release of calcein) [3]: increasing calcein fluorescence | fluorescence (endosomal escape of GFP11) [4]: observed | LC3B accumulation [5]: did show an effect | CRC cell proliferation [6]: no significant inhibition

inhibition of NPC1 by endosomal accumulation of cholesterol [7]: greatest inhibition of NPC1 | cholesterol entrapment [7]: improved cholesterol entrapment | vesicle disruption [7]: induce vesicle disruption
B2: N34: NPC1-targeting monobody clone N34 (SEQ ID NO: 40) (protein)
chain: VSSVPTKLEVVAATPTSLLISWDAPAVTVSYYVITYGETGGHYWHWQTFKVPGSKSTATISGLKPGVDYTITVYAYYGQMRYYSPISINYRT
LC3B accumulation [2]: did not induce LC3B accumulation | endosomal release of calcein [3]: enhanced endosomal release of calcein | calcein fluorescence (endosomal release of calcein) [3]: increasing calcein fluorescence | accumulation of LC3B [8]: dose-dependent accumulation of LC3B | fluorescence (endosomal escape of GFP11) [4]: observed | LC3B accumulation [5]: did show an effect | uptake of monobody [9]: fail to uptake | CRC cell proliferation [6]: growth inhibitory effect | uptake of monobody [10]: efficiently internalize | uptake of monobody [11]: efficiently internalize | LC3B accumulation in xenograft [12, 13]: robust cholesterol and LC3B accumulation; also recorded: induces cholesterol and LC3B accumulation | cholesterol accumulation in xenograft [12, 13]: robust cholesterol and LC3B accumulation; also recorded: induces cholesterol and LC3B accumulation | EGFR phosphorylation (activation) in tumor [12, 14]: EGFR activation was seen; also recorded: induces EGFR phosphorylation | ERK phosphorylation (hyperactivation) in tumor [12, 14]: confirmed; also recorded: induces ERK phosphorylation | cholesterol accumulation in tumor cells ([12]; N34 positive tumor cells compared to non-targeting control monobody (FN)): displayed cholesterol accumulation | uptake in CK8-positive tumor cells ([12]; intratumor injection into xenografts): showed uptake
